Data: publication PMC5089669, “Biocatalytic Properties and Structural Analysis of Eugenol Oxidase from Rhodococcus jostii RHA1: A Versatile Oxidative Biocatalyst” (Chembiochem, 2016)

Molecular target: the molecule itself
Test: crystal structure; sitting-drop vapour diffusion at 20 °C; EUGO 15 mg/mL in 10 mM Tris-HCl pH 7.5 with 24 % PEG6000, 0.1 M Tris-HCl pH 8.0; crystals soaked with isoeugenol; two subunits in the asymmetric unit

B1: Eugenol oxidase (EUGO) from Rhodococcus jostii RHA1 (enzyme, UniProt Q0SBK1 1-526, looked up)
chain: MTRTLPPGVSDERFDAALQRFRDVVGDKWVLSTADELEAFRDPYPVGAAEANLPSAVVSPESTEQVQDIVRIANEYGIPLSPVSTGKNNGYGGAAPRLSGSVIVKTGERMNRILEVNEKYGYALLEPGVTYFDLYEYLQSHDSGLMLDCPDLGWGSVVGNTLDRGVGYTPYGDHFMWQTGLEVVLPQGEVMRTGMGALPGSDAWQLFPYGFGPFPDGMFTQSNLGIVTKMGIALMQRPPASQSFLITFDKEEDLEQIVDIMLPLRINMAPLQNVPVLRNIFMDAAAVSKRTEWFDGDGPMPAEAIERMKKDLDLGFWNFYGTLYGPPPLIEMYYGMIKEAFGKIPGARFFTHEERDDRGGHVLQDRHKINNGIPSLDELQLLDWVPNGGHIGFSPVSAPDGREAMKQFEMVRNRANEYNKDYAAQFIIGLREMHHVCLFIYDTAIPEAREEILQMTKVLVREAAEAGYGEYRTHNALMDDVMATFNWGDGALLKFHEKIKDALDPNGIIAPGKSGIWSQRFRGQNL
modifications: FAD covalently bound: bond between His390 and the C8M atom of the flavin ring
notes: eugenol oxidase (EUGO), flavoprotein oxidase of the VAO family, Rhodococcus jostii RHA1; source: E. coli culture
Q: Which “stoichiometry N” value does the source give for B1 here?
A: 2
